Test results published in paper PMC4207043, “Distinct N-terminal regions of the exomer secretory vesicle cargo Chs3 regulate its trafficking itinerary” (Frontiers in Cell and Developmental Biology, 2014).
Blank lines part the entries; values can stand above or below the binder they belong to.

Experiments:
[1] = molecular target: T1, Recombinant "core" exomer complex (Chs5 residues 1–77 and Chs6-6xHis) (S. cerevisiae, UniProt Q12114 1-77; P40955 1-746); assay: pull-down; GST-Chs3 fragments held on glutathione resin; 10 μl of 5 mg/ml purified exomer added to resin in 500 μl PBS + 1 mM DTT, ~1 h at 4°C, washed 3 times; exomer detected by Western blot with anti-6xHis antibody (by Coomassie staining in Figure 5C); settings: both partners purified
T1 construct: Chs5, S. cerevisiae, residues 1–77; Chs6, S. cerevisiae; The end of the 6xHis tag is read from the printed name Chs6-6xHis; also called Chs5(1–77)/Chs6-6xHis exomer complex; purified exomer; source: recombinant, purified as described for the Chs5(1–299)/Chs6-6xHis construct (Paczkowski et al., 2012); not shown: His6, C-terminal, kept
T1 sequence (looked up) 1: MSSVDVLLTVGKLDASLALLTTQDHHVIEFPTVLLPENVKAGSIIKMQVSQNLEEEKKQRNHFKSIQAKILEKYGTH
T1 sequence (looked up) 2: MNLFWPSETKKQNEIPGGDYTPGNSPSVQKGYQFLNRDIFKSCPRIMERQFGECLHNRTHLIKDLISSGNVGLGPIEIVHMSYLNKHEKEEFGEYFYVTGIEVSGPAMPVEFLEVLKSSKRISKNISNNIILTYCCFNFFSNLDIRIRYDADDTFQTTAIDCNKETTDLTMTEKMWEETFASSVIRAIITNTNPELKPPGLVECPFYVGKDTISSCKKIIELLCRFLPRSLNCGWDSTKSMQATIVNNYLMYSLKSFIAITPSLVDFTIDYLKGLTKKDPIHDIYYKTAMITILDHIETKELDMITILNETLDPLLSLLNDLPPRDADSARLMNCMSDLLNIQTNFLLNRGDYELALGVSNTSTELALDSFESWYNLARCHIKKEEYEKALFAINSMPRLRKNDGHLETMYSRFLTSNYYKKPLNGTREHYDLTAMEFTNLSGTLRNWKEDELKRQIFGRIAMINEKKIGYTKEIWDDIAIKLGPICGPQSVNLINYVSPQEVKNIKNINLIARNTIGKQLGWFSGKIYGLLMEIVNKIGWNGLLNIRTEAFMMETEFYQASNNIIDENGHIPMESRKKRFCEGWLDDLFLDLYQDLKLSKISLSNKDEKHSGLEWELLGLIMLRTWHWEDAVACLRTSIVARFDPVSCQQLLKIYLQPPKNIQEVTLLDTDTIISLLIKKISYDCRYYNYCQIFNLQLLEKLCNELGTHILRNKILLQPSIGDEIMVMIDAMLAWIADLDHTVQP

[2] = molecular target: T2, Chs6-6xHis (S. cerevisiae, UniProt P40955 1-746); assay: crystal structure; Chs5(1–77)/Chs6-6xHis exomer co-crystallised with Chs3 peptide, hanging drop vapor diffusion; 0.3 M ammonium sulfate, 0.1 M citric acid pH 4.0; molar ratio 3.85:1 peptide:exomer; settings: both partners purified
T2 construct: Chs6, S. cerevisiae; The Chs6 chain of m1, written alone for the pairs that touch in the crystal structure; The end of the tag is read from the printed name; also called His-tagged Chs6; source: recombinant, purified with Chs5(1–77) as described (Paczkowski et al., 2012); not shown: His6, C-terminal, kept
T2 sequence (looked up): T1 sequence (looked up) 2

binding result [1]: binds
B1: GST-Chs3(1–52) (domain or fragment, S. cerevisiae, UniProt P29465 1-52, looked up)
chain: MTGLNGDDPDDYYLNLNQDEESLLRSRHSVGSGAPHRQGSLVRPERSRLNNP
notes: Chs3 (chitin synthase), S. cerevisiae, residues 1–52; Vector pGEX-2T; the end of GST is read from the printed name GST-Chs3; also called Residues 1–52; wild-type GST-Chs3(1–52) fragment; source: E. coli Rosetta2 (DE3), isolated from cleared lysate on glutathione resin; not shown: GST, N-terminal, kept

binding result [1]: binds
B2: GST-Chs3 fragment, residues 28–52 (domain or fragment, S. cerevisiae, UniProt P29465 28-52, looked up)
chain: HSVGSGAPHRQGSLVRPERSRLNNP
notes: Chs3 (chitin synthase), S. cerevisiae, residues 28–52; Vector pGEX-2T; the end of GST is read from the printed name GST-Chs3; source: E. coli Rosetta2 (DE3), isolated from cleared lysate on glutathione resin; not shown: GST, N-terminal, kept

binding result [2]: binds
B3: Chs3 peptide matching residues 10–27 (peptide, UniProt P29465 10-27, looked up)
peptide: DDYYLNLNQDEESLLRSR
notes: Chs3 (chitin synthase), S. cerevisiae, residues 10–27; only residues 12–25 are visible in the structure; also called peptide of Chs3 residues 10–27; source: synthetic peptide (Genscript, 95% purity)

binding result [1]: binds
B4: GST-Chs3 fragment, residues 1–52 with residues 10–27 deleted (domain or fragment, S. cerevisiae, UniProt P29465 1-52, looked up)
chain: MTGLNGDDPHSVGSGAPHRQGSLVRPERSRLNNP
notes: Chs3 (chitin synthase), S. cerevisiae, residues 1–52 lacking residues 10–27; Vector pGEX-2T; the end of GST is read from the printed name GST-Chs3; source: E. coli Rosetta2 (DE3), isolated from cleared lysate on glutathione resin; not shown: GST, N-terminal, kept

binding result [2]: binds
B5: Chs5(1–77) (domain or fragment, S. cerevisiae, UniProt Q12114 1-77, looked up)
chain: T1 sequence (looked up) 1
notes: Chs5, S. cerevisiae, residues 1–77; The Chs5 chain of m1, written alone for the pair that touches in the crystal structure; also called Chs5 residues 1–77; truncated Chs5; source: recombinant, purified with Chs6-6xHis as described (Paczkowski et al., 2012)
